Measurements as given in patent US20240190936A1 (Eli Lilly, published 2024).
Residue numbers refer to the chain shown, from its start. *1 amine or outer side, *2 acyl side, *3 side chain or, on linkers, in order; H or OH if unused. Where no end group is shown, it is not given here. Side-chain parts run from the residue outwards. [ ]: non-standard residue; d: D form. The star is where a group is joined. C20 diacid = O=C(O)CCCCCCCCCCCCCCCCCCC(=O)*; αMePhe(2-F) = C[C@](N)(Cc1ccccc1F)C(=O)O; γGlu = O=C(O)[C@H](CCC(=O)[*:2])N[*:1]; AEEA = NCCOCCOCC(=O)O; Aib = CC(C)(N)C(=O)O

Columns and labels:
human GLP-1 receptor [1] = molecular target: T1, human GLP-1 receptor (human, UniProt P43220 24-463); experiment: radioligand competition SPA, membranes of HEK293 cells overexpressing human GLP-1R
T1 construct: whole, on cells; cAMP assays used the whole cells; also called hGLP-1R; GLP-IR
Protocol: (§1) Radioligand competition binding assays are run to determine the equilibrium dissociation constant for Example compounds and comparator molecules.
(§2) The assays are performed in the presence of bacitracin as a non-specific blocking agent to prevent acylated moieties of test analogs from binding to protein components used in standard assay buffers (e.g., albumin).
(§3) Competition curves are plotted as the percent specific inhibition (y-axis) versus log concentration of compound (x-axis) and analyzed using a four parameter nonlinear regression fit with variable slope (ABase or Genedata).

human glucagon receptor [2] = molecular target: T2, human glucagon receptor (human, UniProt P47871 26-477); experiment: radioligand competition SPA, membranes of HEK293 cells overexpressing human GcgR
T2 construct: whole, on cells; cAMP assays used the whole cells; also called GcgR; hGcgR
T2 sequence (P47871 26-477): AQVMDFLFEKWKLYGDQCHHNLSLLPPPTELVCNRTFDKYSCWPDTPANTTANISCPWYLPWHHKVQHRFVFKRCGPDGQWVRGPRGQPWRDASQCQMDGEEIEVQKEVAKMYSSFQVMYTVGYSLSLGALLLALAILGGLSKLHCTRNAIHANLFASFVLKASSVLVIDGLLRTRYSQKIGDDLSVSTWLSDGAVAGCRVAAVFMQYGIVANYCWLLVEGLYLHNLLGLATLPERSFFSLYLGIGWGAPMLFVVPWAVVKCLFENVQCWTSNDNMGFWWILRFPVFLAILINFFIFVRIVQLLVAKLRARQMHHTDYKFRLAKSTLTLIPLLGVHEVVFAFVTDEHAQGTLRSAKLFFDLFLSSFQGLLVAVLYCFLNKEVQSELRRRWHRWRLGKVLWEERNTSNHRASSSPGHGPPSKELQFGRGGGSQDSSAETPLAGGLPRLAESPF
Protocol: as §1, §2, §3

human GIP receptor [3] = molecular target: T3, human GIP receptor (human, UniProt P48546 22-466); experiment: cell-based or functional assay
T3 sequence (looked up): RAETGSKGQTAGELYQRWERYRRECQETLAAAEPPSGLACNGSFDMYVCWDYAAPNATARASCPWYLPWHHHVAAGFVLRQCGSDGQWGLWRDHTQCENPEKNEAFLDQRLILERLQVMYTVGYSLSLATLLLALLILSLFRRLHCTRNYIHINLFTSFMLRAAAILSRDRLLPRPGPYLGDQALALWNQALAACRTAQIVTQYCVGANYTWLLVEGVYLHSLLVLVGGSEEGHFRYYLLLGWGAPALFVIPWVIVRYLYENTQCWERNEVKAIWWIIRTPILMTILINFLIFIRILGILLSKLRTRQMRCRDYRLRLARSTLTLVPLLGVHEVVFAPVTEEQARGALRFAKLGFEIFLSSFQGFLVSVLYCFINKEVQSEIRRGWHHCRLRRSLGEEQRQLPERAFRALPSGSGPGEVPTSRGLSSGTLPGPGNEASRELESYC

human GLP-1 receptor [4] = molecular target: T1, human GLP-1 receptor; experiment: cell-based or functional assay
human glucagon receptor [5] = molecular target: T2, human glucagon receptor; experiment: cell-based or functional assay
human GIP receptor [6] = molecular target: T3, human GIP receptor; experiment: radioligand competition SPA, membranes of HEK293 cells overexpressing human GIPR
Protocol: as §1, §2, §3

human GIP receptor [7] = molecular target: T3, human GIP receptor; experiment: cell-based or functional assay; remark: listed apart in the source
human GLP-1 receptor [8] = molecular target: T1, human GLP-1 receptor; experiment: cell-based or functional assay; remark: listed apart in the source
human glucagon receptor [9] = molecular target: T2, human glucagon receptor; experiment: cell-based or functional assay; remark: listed apart in the source

B1: Example 1 (peptide)
peptide: YXQGTXTSDYSILLDKKAQXAFIEYLLEGGPSSGAPPPS
modifications: Aib at 2; αMeF at 6; K17 conjugated at the epsilon-amino group with (2-[2-(2-amino-ethoxy)-ethoxy]-acetyl)2-(γGlu)-CO-(CH2)18-CO2H; Aib at 20; C-terminal amide
notes: Synthetic acylated peptide
In the case of B1, the Ki (human GLP-1 receptor [1]) is reported as 2.51 nM, the Ki (human glucagon receptor [2]) is reported as 0.955 nM and the “cAMP EC50, in the presence of 0.1% casein” value (“cAMP EC50 … of 0.1% casein” below) (human GIP receptor [3]) is reported as 0.0226 nM. For the same binder, the “cAMP EC50 … of 0.1% casein” value (human GLP-1 receptor [4]) was 0.112 nM, the “cAMP EC50 … of 0.1% casein” value (human glucagon receptor [5]) was 0.158 nM and the Ki (human GIP receptor [6]) was 0.0278 nM. The “cAMP EC50, in the presence of FBS and BSA” value (“cAMP EC50 … of FBS and BSA” below) (human GIP receptor [7]) was 1.82 nM, the “cAMP EC50 … of FBS and BSA” value (human GLP-1 receptor [8]) was 12.6 nM and the “cAMP EC50 … of FBS and BSA” value (human glucagon receptor [9]) was 6.33 nM.

B2: Example 2 (peptide)
peptide: B1 peptide with L13X
modifications: Aib at 2; αMeF at 6; αMeL at 13; K17 conjugated at the epsilon-amino group with (2-[2-(2-amino-ethoxy)-ethoxy]-acetyl)2-(γGlu)-CO-(CH2)18-CO2H; Aib at 20; C-terminal amide
notes: Synthetic acylated peptide
B2 was tested, and the Ki (human GLP-1 receptor [1]) was 2.41 nM, the Ki (human glucagon receptor [2]) was 1.49 nM and the “cAMP EC50 … of 0.1% casein” value (human GIP receptor [3]) was 0.0329 nM. The “cAMP EC50 … of 0.1% casein” value (human GLP-1 receptor [4]) was 0.106 nM, the “cAMP EC50 … of 0.1% casein” value (human glucagon receptor [5]) was 0.096 nM and the Ki (human GIP receptor [6]) was 0.0413 nM. For the same binder, the “cAMP EC50 … of FBS and BSA” value (human GIP receptor [7]) was 1.34 nM, the “cAMP EC50 … of FBS and BSA” value (human GLP-1 receptor [8]) was 11.6 nM and the “cAMP EC50 … of FBS and BSA” value (human glucagon receptor [9]) was 4.75 nM.

B3: Example 4 (peptide)
peptide: B1 peptide
modifications: Aib at 2; αMeF(2F) at 6; K17 conjugated at the epsilon-amino group with (2-[2-(2-amino-ethoxy)-ethoxy]-acetyl)-(γGlu)-CO-(CH2)18-CO2H; Aib at 20; C-terminal amide
notes: Synthetic acylated peptide
With B3 the Ki (human GLP-1 receptor [1]) was 1.21 nM, the Ki (human glucagon receptor [2]) was 0.637 nM and the “cAMP EC50 … of 0.1% casein” value (human GIP receptor [3]) was 0.0321 nM. The “cAMP EC50 … of 0.1% casein” value (human GLP-1 receptor [4]) was 0.145 nM, the “cAMP EC50 … of 0.1% casein” value (human glucagon receptor [5]) was 0.0296 nM and the Ki (human GIP receptor [6]) was 0.0832 nM. The “cAMP EC50 … of FBS and BSA” value (human GIP receptor [7]) was 1.37 nM, the “cAMP EC50 … of FBS and BSA” value (human GLP-1 receptor [8]) was 10.6 nM and the “cAMP EC50 … of FBS and BSA” value (human glucagon receptor [9]) was 1.78 nM.

B4: Example 3 (peptide)
peptide: B1 peptide with Q3H
modifications: Aib at 2; αMeF(2F) at 6; K17 conjugated at the epsilon-amino group with (2-[2-(2-amino-ethoxy)-ethoxy]-acetyl)2-(γGlu)-CO-(CH2)18-CO2H; Aib at 20; C-terminal amide
notes: Synthetic acylated peptide
B4 was tested, and the Ki (human GLP-1 receptor [1]) was 1.66 nM, the Ki (human glucagon receptor [2]) was 0.469 nM and the “cAMP EC50 … of 0.1% casein” value (human GIP receptor [3]) was 0.0215 nM. The “cAMP EC50 … of 0.1% casein” value (human GLP-1 receptor [4]) was 0.104 nM, the “cAMP EC50 … of 0.1% casein” value (human glucagon receptor [5]) was 0.0301 nM and the Ki (human GIP receptor [6]) was 0.0684 nM. The “cAMP EC50 … of FBS and BSA” value (human GIP receptor [7]) was 1.37 nM, the “cAMP EC50 … of FBS and BSA” value (human GLP-1 receptor [8]) was 13.1 nM and the “cAMP EC50 … of FBS and BSA” value (human glucagon receptor [9]) was 3.46 nM.

B5: Example 5 (peptide)
peptide: Y[Aib]QGT[αMePhe(2-F)]TSDYSILLDKK([AEEA-γGlu-C20 diacid])AQQAFIEYLLEGGPSSGAPPPS-NH2
modifications: N-terminus assumed
SMILES: CC[C@H](C)[C@H](NC(=O)[C@H](Cc1ccccc1)NC(=O)[C@H](C)NC(=O)[C@H](CCC(N)=O)NC(=O)[C@H](CCC(N)=O)NC(=O)[C@H](C)NC(=O)[C@H](CCCCNC(=O)COCCOCCNC(=O)CC[C@H](NC(=O)CCCCCCCCCCCCCCCCCCC(=O)O)C(=O)O)NC(=O)[C@H](CCCCN)NC(=O)[C@H](CC(=O)O)NC(=O)[C@H](CC(C)C)NC(=O)[C@H](CC(C)C)NC(=O)[C@@H](NC(=O)[C@H](CO)NC(=O)[C@H](Cc1ccc(O)cc1)NC(=O)[C@H](CC(=O)O)NC(=O)[C@H](CO)NC(=O)[C@@H](NC(=O)[C@](C)(Cc1ccccc1F)NC(=O)[C@@H](NC(=O)CNC(=O)[C@H](CCC(N)=O)NC(=O)C(C)(C)NC(=O)[C@@H](N)Cc1ccc(O)cc1)[C@@H](C)O)[C@@H](C)O)[C@@H](C)CC)C(=O)N[C@@H](CCC(=O)O)C(=O)N[C@@H](Cc1ccc(O)cc1)C(=O)N[C@@H](CC(C)C)C(=O)N[C@@H](CC(C)C)C(=O)N[C@@H](CCC(=O)O)C(=O)NCC(=O)NCC(=O)N1CCC[C@H]1C(=O)N[C@@H](CO)C(=O)N[C@@H](CO)C(=O)NCC(=O)N[C@@H](C)C(=O)N1CCC[C@H]1C(=O)N1CCC[C@H]1C(=O)N1CCC[C@H]1C(=O)N[C@@H](CO)C(N)=O
notes: Synthetic acylated peptide
With B5 the Ki (human GLP-1 receptor [1]) was 1.17 nM, the Ki (human glucagon receptor [2]) was 0.419 nM and the “cAMP EC50 … of 0.1% casein” value (human GIP receptor [3]) was 0.0306 nM. The “cAMP EC50 … of 0.1% casein” value (human GLP-1 receptor [4]) was 0.103 nM, the “cAMP EC50 … of 0.1% casein” value (human glucagon receptor [5]) was 0.0343 nM and the Ki (human GIP receptor [6]) was 0.0347 nM. For the same binder, the “cAMP EC50 … of FBS and BSA” value (human GIP receptor [7]) was 1.91 nM, the “cAMP EC50 … of FBS and BSA” value (human GLP-1 receptor [8]) was 13 nM and the “cAMP EC50 … of FBS and BSA” value (human glucagon receptor [9]) was 1.87 nM.

B6: Example 6 (peptide)
peptide: Y[Aib]QGT[αMePhe(2-F)]TSDYSILLDKK([AEEA-γGlu-C20 diacid])AQHAFIEYLLEGGPSSGAPPPS-NH2
modifications: N-terminus assumed
SMILES: CC[C@H](C)[C@H](NC(=O)[C@H](Cc1ccccc1)NC(=O)[C@H](C)NC(=O)[C@H](Cc1c[nH]cn1)NC(=O)[C@H](CCC(N)=O)NC(=O)[C@H](C)NC(=O)[C@H](CCCCNC(=O)COCCOCCNC(=O)CC[C@H](NC(=O)CCCCCCCCCCCCCCCCCCC(=O)O)C(=O)O)NC(=O)[C@H](CCCCN)NC(=O)[C@H](CC(=O)O)NC(=O)[C@H](CC(C)C)NC(=O)[C@H](CC(C)C)NC(=O)[C@@H](NC(=O)[C@H](CO)NC(=O)[C@H](Cc1ccc(O)cc1)NC(=O)[C@H](CC(=O)O)NC(=O)[C@H](CO)NC(=O)[C@@H](NC(=O)[C@](C)(Cc1ccccc1F)NC(=O)[C@@H](NC(=O)CNC(=O)[C@H](CCC(N)=O)NC(=O)C(C)(C)NC(=O)[C@@H](N)Cc1ccc(O)cc1)[C@@H](C)O)[C@@H](C)O)[C@@H](C)CC)C(=O)N[C@@H](CCC(=O)O)C(=O)N[C@@H](Cc1ccc(O)cc1)C(=O)N[C@@H](CC(C)C)C(=O)N[C@@H](CC(C)C)C(=O)N[C@@H](CCC(=O)O)C(=O)NCC(=O)NCC(=O)N1CCC[C@H]1C(=O)N[C@@H](CO)C(=O)N[C@@H](CO)C(=O)NCC(=O)N[C@@H](C)C(=O)N1CCC[C@H]1C(=O)N1CCC[C@H]1C(=O)N1CCC[C@H]1C(=O)N[C@@H](CO)C(N)=O
notes: Synthetic acylated peptide
B6 was tested, and the Ki (human GLP-1 receptor [1]) was 0.822 nM, the Ki (human glucagon receptor [2]) was 0.382 nM and the “cAMP EC50 … of 0.1% casein” value (human GIP receptor [3]) was 0.0349 nM. For the same binder, the “cAMP EC50 … of 0.1% casein” value (human GLP-1 receptor [4]) was 0.115 nM, the “cAMP EC50 … of 0.1% casein” value (human glucagon receptor [5]) was 0.0293 nM and the Ki (human GIP receptor [6]) was 0.0388 nM. For the same binder, the “cAMP EC50 … of FBS and BSA” value (human GIP receptor [7]) was 1.41 nM, the “cAMP EC50 … of FBS and BSA” value (human GLP-1 receptor [8]) was 8.94 nM and the “cAMP EC50 … of FBS and BSA” value (human glucagon receptor [9]) was 1.76 nM.
